Test results from US20260102461A1.

Target: TRPV1 disordered region polypeptide (UniProt Q8NER1)
Assay: modified sandwich ELISA, fluorescence grade (key: 50000 < x < 100000, Weak binding)

B1: S068 (designed binder)
chain: GDTRPRFLWQLKFECHFFNGTERVRLLERCIYNQEESVRFDSDVGEYRAVTELGRPDAEYWNSQKDLLEQRRAAVDTYCRHNYGVGESFTVQRRVEPKVTVYPSKTQPLQHHNLLVCSVSGFYPGSIEVRWFRNGQEEKAGVVSTGLIQNGDWTFQTLVMLETVPRSGEVYTCQVEHPSVTSPLTVEWRASGGGGSGGGGSGGGGIKEEHVIIQAEFYLNPDQSGEFMFDFDGDEIFHVDMAKKETVWRLEEFGRFASFEAQGALANIAVDKANLEIMTKRSNYTPITNVPPEVTVLTNSPVELREPNVLICFIDKFTPPVVNVTWLRNGKPVTTGVSETVFLPREDHLFRKFHYLPFLPSTEDVYDCRVEHWGLDEPLLKHWEFDAPSGGSHHHHHHLE
In the case of B1, the fluorescent signal (fluorescentsignal) is reported as 50000 to 100000.
